Laboratory results from paper PMC6128628, “Impaired hepatic amyloid-beta degradation in Alzheimer’s disease” (PLoS ONE, 2018).

Assay: Degradation of fluorescein-labeled Aβ spiked into human liver homogenates (ELISA)
Format: in vitro ADME
Conditions: fluorescein-labeled peptide from DMSO stock diluted to 0.4 μg/ml, 5 μl added, 37°C, stopped on ice with protease inhibitor cocktail
Experimental: Frozen liver (~500 mg) was ground into a powder in liquid nitrogen with a mortar and pestle then transferred to 8 ml sucrose lysis buffer (SLB: 20 mM HEPES, 1.5 mM magnesium chloride, 10 mM potassium chloride, 40 mM sucrose, 1 mM EDTA, 2% glycerol, 0.5% sodium deoxycholate, 1% Tergitol, pH 7.9) at 4°C. The tissue was then homogenized using an Omni TH tissue grinder (Kennesaw, GA) at 4°C. The homogenates were centrifuged at 15,000 x g in a Type 50.4 Ti rotor (Beckman Coulter, Brea, CA) for 20 min at 4°C and the supernatant was collected. Total protein was determined with Pierce’s Micro BCA protein assay kit (Thermo Fisher Scientific, Waltham, MA).
Lyophilized fluorescein-labeled Aβ40 and Aβ42 peptides (FAβ, rPeptide, Bogart, GA) were reconstituted in DMSO to 1 mg/ml and stored at 4°C [22]. For degradation experiments, the stock peptides were diluted to 0.4 μg/ml (1:2500) in sucrose lysis buffer (SLB), 5 μl of either FAβ40 or FAβ42 was added to the reaction mixtures and samples were incubated at 37°C for 1 h or 2 h (for ELISA and Western experiments). In addition, two 0 h incubations were included: one liver homogenate with 5 μl of FAβ as well as a negative control sample without FAβ. Reactions were terminated by placing homogenates on ice and by adding SLB with complete protease inhibitor cocktail (PIC, Roche, Mannheim, Germany). Reactions used for Western blots were stopped by 2XLDS sample buffer (Invitrogen) containing 100 mM dithiothreitol.
All 4 sample sets were analyzed in triplicate with Aβ40 and Aβ42 ELISAs (Invitrogen; catalog # KHB3481 and KHB3441 following the manufacturer’s instructions. Similar sets of samples were analyzed for FAβ by Western blot (as described below) with an anti-fluorescein antibody (Table 2) which binds to both to both free and bound fluorescein.

Substance | Aβ degraded within 2 hours, AD group (postmortem human liver homogenate from Alzheimer's disease subjects (n = 8) in sucrose lysis buffer pH 7.9, 2 h, Aβ42 ELISA in triplicate, p = 0.07 vs ND) | Aβ degraded within 2 hours, ND homogenates (postmortem human liver homogenate from non-demented controls (n = 8) in sucrose lysis buffer pH 7.9, 2 h, Aβ42 ELISA in triplicate, p = 0.07 vs AD) | Aβ degraded within an hour, AD group (postmortem human liver homogenate from Alzheimer's disease subjects (n = 8) in sucrose lysis buffer pH 7.9, 1 h, Aβ40 ELISA in triplicate, p<0.05 vs ND) | Aβ degraded within an hour, ND group (postmortem human liver homogenate from non-demented controls (n = 8) in sucrose lysis buffer pH 7.9, 1 h, Aβ40 ELISA in triplicate, p<0.05 vs AD)
Aβ42: synthetic fluorescein-labeled amyloid beta 42 peptide (rPeptide), spiked into liver homogenates | 80% | 94% |  | 
Aβ40: synthetic fluorescein-labeled amyloid beta 40 peptide (rPeptide), spiked into liver homogenates |  |  | 23% | Thirty-four
